Literature values as cited in paper PMC3433420.
Like-named read-outs stand apart in the source and are kept apart here.

Tests used:
Conditions in all cases: cited from earlier work
[1] = target: PIK3R1-N (Homo sapiens) (UniProt P27986)
[2] = target: ABL2 (Homo sapiens) (UniProt P42684)
[3] = target: CRK (Homo sapiens) (UniProt P46108)
[4] = target: RASA1-N (Homo sapiens) (UniProt P20936)
[5] = target: CRKL (Homo sapiens) (UniProt P46109)
[6] = target: BLK (Homo sapiens) (UniProt P51451)
[7] = target: ITK (Homo sapiens) (UniProt Q08881)
Chain of ITK (Homo sapiens) (Q08881 234-343): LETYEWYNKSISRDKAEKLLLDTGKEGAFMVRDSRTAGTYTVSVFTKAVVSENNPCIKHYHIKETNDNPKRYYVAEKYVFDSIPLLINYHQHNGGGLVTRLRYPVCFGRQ

[8] = target: FGR (Homo sapiens) (UniProt P09769)
[9] = target: SOCS1 (Homo sapiens) (UniProt O15524)
Chain of SOCS1 (Homo sapiens) (O15524 74-179): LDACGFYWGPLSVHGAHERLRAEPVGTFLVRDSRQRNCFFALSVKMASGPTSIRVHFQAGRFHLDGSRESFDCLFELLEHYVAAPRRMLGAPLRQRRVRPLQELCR

[10] = target: VAV1 (Homo sapiens) (UniProt P15498)
Chain of VAV1 (Homo sapiens) (P15498 666-770): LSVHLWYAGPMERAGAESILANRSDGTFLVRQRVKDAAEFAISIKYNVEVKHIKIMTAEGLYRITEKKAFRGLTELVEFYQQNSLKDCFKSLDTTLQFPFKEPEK

[11] = target: NCK2 (Homo sapiens) (UniProt O43639)
Chain of NCK2 (Homo sapiens) (O43639 280-380): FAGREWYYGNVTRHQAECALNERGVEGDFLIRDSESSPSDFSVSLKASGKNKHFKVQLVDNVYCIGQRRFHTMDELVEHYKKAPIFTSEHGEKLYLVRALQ

[12] = target: SHC1-PTB (Homo sapiens) (UniProt P29353)
Chain of SHC1-PTB (Homo sapiens) (P29353 483-583): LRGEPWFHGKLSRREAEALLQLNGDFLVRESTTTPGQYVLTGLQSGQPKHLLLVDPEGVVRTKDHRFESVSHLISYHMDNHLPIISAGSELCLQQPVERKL

[13] = target: PIK3R2-N (Homo sapiens) (UniProt O00459)
Chain of PIK3R2-N (Homo sapiens) (O00459 325-721): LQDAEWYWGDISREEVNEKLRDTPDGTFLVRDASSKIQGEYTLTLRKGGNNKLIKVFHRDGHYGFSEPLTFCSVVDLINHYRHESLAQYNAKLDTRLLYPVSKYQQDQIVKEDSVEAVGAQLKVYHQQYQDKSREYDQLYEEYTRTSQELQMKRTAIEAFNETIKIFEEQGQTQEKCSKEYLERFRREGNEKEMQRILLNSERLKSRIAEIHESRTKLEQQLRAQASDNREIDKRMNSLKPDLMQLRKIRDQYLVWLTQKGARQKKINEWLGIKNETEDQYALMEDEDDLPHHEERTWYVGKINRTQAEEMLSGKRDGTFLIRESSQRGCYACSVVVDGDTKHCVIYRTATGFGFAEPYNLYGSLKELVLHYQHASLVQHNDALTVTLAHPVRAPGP

[14] = target: GRB7 (Homo sapiens) (UniProt Q14451)
Chain of GRB7 (Homo sapiens) (Q14451 426-532): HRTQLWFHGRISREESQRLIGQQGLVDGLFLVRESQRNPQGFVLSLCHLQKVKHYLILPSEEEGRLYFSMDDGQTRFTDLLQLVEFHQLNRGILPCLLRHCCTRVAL

[15] = target: ABL2 (Homo sapiens) (UniProt P42684); remark: listed apart in the source
[16] = target: SUPT6H (Homo sapiens) (UniProt Q7KZ85)
Chain of SUPT6H (Homo sapiens) (Q7KZ85 1320-1436): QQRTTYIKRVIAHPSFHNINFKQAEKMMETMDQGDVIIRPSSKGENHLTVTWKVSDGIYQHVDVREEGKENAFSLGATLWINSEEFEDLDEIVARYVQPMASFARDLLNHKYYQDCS

[17] = target: VAV3 (Homo sapiens) (UniProt Q9UKW4)
Chain of VAV3 (Homo sapiens) (Q9UKW4 667-771): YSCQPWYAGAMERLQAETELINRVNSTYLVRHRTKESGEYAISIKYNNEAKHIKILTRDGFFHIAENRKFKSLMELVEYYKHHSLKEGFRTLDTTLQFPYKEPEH

[18] = target: VAV1 (Homo sapiens) (UniProt P15498); remark: listed apart in the source
[19] = target: PIK3R1-NC (Homo sapiens) (UniProt P27986)
Chain of PIK3R1-NC (Homo sapiens) (P27986 328-723): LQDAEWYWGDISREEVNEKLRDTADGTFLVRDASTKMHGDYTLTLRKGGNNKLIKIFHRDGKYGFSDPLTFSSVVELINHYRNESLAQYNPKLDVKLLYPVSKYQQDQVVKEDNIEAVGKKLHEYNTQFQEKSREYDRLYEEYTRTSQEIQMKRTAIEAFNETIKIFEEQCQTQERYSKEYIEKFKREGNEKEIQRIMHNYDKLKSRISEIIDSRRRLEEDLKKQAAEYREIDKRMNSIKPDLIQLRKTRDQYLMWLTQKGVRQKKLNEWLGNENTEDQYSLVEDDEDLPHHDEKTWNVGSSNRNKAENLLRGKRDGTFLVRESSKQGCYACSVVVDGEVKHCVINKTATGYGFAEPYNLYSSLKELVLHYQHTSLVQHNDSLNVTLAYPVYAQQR

[20] = target: BCAR3 (Homo sapiens) (UniProt O75815)
Chain of BCAR3 (Homo sapiens) (O75815 149-258): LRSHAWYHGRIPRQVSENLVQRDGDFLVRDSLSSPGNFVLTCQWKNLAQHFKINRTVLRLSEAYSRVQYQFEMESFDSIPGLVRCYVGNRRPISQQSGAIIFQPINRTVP

[21] = target: YES1 (Homo sapiens) (UniProt P07947)
Chain of YES1 (Homo sapiens) (P07947 153-260): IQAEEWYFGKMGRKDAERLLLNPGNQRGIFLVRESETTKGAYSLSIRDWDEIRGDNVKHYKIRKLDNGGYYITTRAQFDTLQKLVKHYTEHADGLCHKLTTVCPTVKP

[22] = target: YES1 (Homo sapiens) (UniProt P07947); remark: listed apart in the source
[23] = target: CRKL (Homo sapiens) (UniProt P46109); remark: listed apart in the source
[24] = target: RASA1-NC (Homo sapiens) (UniProt P20936)
Chain of RASA1-NC (Homo sapiens) (P20936 176-446): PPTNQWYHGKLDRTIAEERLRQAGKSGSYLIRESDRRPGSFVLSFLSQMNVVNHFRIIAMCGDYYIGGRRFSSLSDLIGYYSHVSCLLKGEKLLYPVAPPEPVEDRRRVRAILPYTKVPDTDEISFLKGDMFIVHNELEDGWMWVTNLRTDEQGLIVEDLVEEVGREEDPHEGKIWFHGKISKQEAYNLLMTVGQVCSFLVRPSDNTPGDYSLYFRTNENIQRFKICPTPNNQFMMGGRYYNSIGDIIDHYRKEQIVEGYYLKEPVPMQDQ

[25] = target: RASA1-NC (Homo sapiens) (UniProt P20936); remark: listed apart in the source
[26] = target: PIK3R1-N (Homo sapiens) (UniProt P27986); remark: listed apart in the source
[27] = target: LYN (Homo sapiens) (UniProt P07948)
Chain of LYN (Homo sapiens) (P07948 124-231): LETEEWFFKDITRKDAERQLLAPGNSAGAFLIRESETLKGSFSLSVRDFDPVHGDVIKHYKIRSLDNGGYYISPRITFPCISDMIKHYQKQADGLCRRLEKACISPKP

[28] = target: VAV1 (Homo sapiens) (UniProt P15498); remark: listed apart in the source
[29] = target: SLA2 (Homo sapiens) (UniProt Q9H6Q3)
Chain of SLA2 (Homo sapiens) (Q9H6Q3 89-196): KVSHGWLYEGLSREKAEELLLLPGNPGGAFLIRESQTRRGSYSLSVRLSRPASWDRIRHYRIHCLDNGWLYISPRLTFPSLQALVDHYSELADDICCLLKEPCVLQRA

[30] = target: SHC1 (Homo sapiens) (UniProt P29353)
Chain of SHC1 (Homo sapiens) (P29353 483-583): as the sequence (P29353 483-583) above

[31] = target: CRKL (Homo sapiens) (UniProt P46109); remark: listed apart in the source

Chain of CRKL (Homo sapiens) (P46109 9-107): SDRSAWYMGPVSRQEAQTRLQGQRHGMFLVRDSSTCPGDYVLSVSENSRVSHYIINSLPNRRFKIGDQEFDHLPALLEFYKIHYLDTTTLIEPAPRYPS
Chain of ABL2 (Homo sapiens) (P42684 168-268): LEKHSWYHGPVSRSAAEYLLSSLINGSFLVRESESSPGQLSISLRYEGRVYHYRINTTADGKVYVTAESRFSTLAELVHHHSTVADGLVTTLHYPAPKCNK
Chain of PIK3R1-N (Homo sapiens) (P27986 328-723): as the sequence (P27986 328-723) above
Chain of CRK (Homo sapiens) (P46108 8-123): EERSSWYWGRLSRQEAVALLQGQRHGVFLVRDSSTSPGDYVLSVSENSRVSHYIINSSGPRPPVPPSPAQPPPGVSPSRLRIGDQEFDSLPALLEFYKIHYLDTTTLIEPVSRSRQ
Chain of BLK (Homo sapiens) (P51451 119-225): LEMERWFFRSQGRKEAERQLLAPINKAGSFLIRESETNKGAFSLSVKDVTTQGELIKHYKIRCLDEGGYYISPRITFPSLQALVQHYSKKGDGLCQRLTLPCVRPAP
Chain of RASA1-N (Homo sapiens) (P20936 176-446): as the sequence (P20936 176-446) above

## …pYLIPQQGFd
[1]
  apparent Kd (screen): 646 nM
[2]
  apparent Kd (screen): 282 nM
[3]
  apparent Kd (screen): 470 nM
[4]
  apparent Kd (screen): 488 nM
[5]
  apparent Kd (screen): 998 nM

## …pYLVPQQGF
[6]
  apparent Kd (screen): 597 nM
[7]
  apparent Kd (screen): 445 nM
[8]
  apparent Kd (screen): 2000 nM
[9]
  apparent Kd (screen): 2000 nM
[10]
  apparent Kd (screen): 2000 nM
[11]
  apparent Kd (screen): 2000 nM
[12]
  apparent Kd (screen): 2000 nM
[13]
  apparent Kd (screen): 1950 nM

## …pYWDQDPPE
[14]
  apparent Kd (screen): 253 nM
[15]
  apparent Kd (screen): 192 nM
[16]
  apparent Kd (screen): 2000 nM
[17]
  apparent Kd (screen): 2000 nM
[18]
  apparent Kd (screen): 2000 nM
[19]
  apparent Kd (screen): 1840 nM
[20]
  apparent Kd (screen): 2000 nM
[21]
  apparent Kd (screen): 219 nM
[22]
  apparent Kd (screen): 2000 nM
[23]
  apparent Kd (screen): 1460 nM
[24]
  apparent Kd (screen): 224 nM
[25]
  apparent Kd (screen): 2000 nM

## …pYEEMRAFQ
[26]
  apparent Kd (screen): 210 nM
[27]
  apparent Kd (screen): 340 nM
[28]
  apparent Kd (screen): 499 nM
[29]
  apparent Kd (screen): 2000 nM
[30]
  apparent Kd (screen): 999 nM
[31]
  apparent Kd (screen): 1250 nM
